Source: patent US20140341881A1 (DERMADIS, published 2014)
Residue numbers refer to the chain shown, from its start. Each block holds one binder with its values, some of them ahead of it.

Legend:
[1] = target: T1, human neutrophil elastase (HNE) (human, UniProt P08246 30-247, limits assumed); assay: residual enzyme activity against [I]o/[E]o, fluorogenic substrate
T1 sequence (looked up): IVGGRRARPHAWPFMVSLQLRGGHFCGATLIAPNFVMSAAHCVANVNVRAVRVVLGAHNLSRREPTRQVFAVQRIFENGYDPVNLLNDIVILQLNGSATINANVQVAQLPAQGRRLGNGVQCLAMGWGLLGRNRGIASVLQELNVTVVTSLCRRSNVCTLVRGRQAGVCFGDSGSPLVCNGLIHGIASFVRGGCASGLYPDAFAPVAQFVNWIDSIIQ
Protocol: (§1) The stoichiometry of inhibition (SI) values were determined for the inhibition of rACTWT and its variants with hK2 and different other enzymes. An initial test was made with a molar excess of rACT (100 fold) over hK2, PSA, hK1, chymotrypsin (Chtr), plasma kallikrein (PK), urokinase (uPA) and human neutrophile elastase (HNE) enzymes. The reaction was carried out for 30 min at 25° C. (90 min at 37° C. for PSA) in reaction buffer (50 mM Tris pH 7.5, 150 mM NaCl, 0,05% Triton X-100, 0.01% BSA) and residual enzyme activity was measured by adding fluorescent substrates (Z-Phe-Arg-AMC for hK1, hK2 and PK, Suc-Ala-Ala-Pro-Phe-AMC for Chtr, Z-Gly-Gly-Arg-AMC for uPA, MeOSuc-Ala-Ala-Pro-Val-AMC for HNE, and CFP-TFRSA-YFP (TFRSA SEQ ID NO:137) for PSA). Activity of enzyme in presence of inhibitors was compared to uninhibited reaction. For reactions where an inhibition was observed, SI was determined by incubating different concentrations of recombinant serpins. Using linear regression analysis of fractional activity (velocity of inhibited enzyme reaction/velocity of uninhibited enzyme reaction) versus the molar ratio of the inhibitor to enzyme ([Iₒ]/[Eₒ]), the stoichiometry of inhibition, corresponding to the abscissa intercept, was obtained.

[2] = target: T2, human kallikrein 2 (hK2) (human, UniProt P20151 25-261); assay: as above
T2 construct: two preparations treated as one molecule; also called kallikrein hK2
Protocol: as §1

[3] = target: T3, human chymotrypsin (Chtr) (human, UniProt P17538 19-263); assay: as above
T3 sequence (P17538 19-263): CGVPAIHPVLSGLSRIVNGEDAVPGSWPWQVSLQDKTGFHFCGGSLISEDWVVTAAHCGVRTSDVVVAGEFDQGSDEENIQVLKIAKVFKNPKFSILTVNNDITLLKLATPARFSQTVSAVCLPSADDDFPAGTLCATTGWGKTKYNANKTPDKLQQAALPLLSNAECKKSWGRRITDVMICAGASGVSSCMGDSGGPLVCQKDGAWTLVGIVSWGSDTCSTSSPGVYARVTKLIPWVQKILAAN
Protocol: as §1

[4] = target: T4, human plasma kallikrein (PK) (human, UniProt P03952 20-638); assay: as above
T4 sequence (P03952 20-638 limits assumed): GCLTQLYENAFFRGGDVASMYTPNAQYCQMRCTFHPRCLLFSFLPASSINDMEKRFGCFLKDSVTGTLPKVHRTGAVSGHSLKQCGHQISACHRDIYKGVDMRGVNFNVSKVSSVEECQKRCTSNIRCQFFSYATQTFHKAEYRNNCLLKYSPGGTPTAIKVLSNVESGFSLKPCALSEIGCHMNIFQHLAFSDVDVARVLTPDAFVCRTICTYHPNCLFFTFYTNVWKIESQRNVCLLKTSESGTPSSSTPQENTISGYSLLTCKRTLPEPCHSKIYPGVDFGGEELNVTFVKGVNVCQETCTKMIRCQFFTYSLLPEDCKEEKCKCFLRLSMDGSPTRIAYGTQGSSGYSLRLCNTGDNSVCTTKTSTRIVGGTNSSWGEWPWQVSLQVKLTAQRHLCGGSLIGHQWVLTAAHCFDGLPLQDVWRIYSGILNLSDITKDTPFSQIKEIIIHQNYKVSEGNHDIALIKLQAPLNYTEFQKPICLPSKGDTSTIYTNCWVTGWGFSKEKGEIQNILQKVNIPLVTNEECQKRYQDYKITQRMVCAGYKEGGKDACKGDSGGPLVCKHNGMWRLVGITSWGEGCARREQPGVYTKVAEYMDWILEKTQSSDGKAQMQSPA
Protocol: as §1

[5] = target: T1, human neutrophil elastase (HNE); assay: cell-based or functional assay
[6] = target: T2, human kallikrein 2 (hK2); assay: cell-based or functional assay
[7] = target: human kallikrein hK1 (human, UniProt P06870 25-262); assay: cell-based or functional assay
[8] = target: T3, human chymotrypsin (Chtr); assay: cell-based or functional assay
[9] = target: T4, human plasma kallikrein (PK); assay: cell-based or functional assay
[10] = target: T5, urokinase plasminogen activator (uPA) (UniProt P00749 21-431, limits assumed); assay: cell-based or functional assay
[11] = target: T1, human neutrophil elastase (HNE); assay: progress curve, pseudo-first order, fluorogenic substrate
Protocol: (§2) Under these conditions, a fixed amount of enzyme (2 nM) was mixed with different concentrations of inhibitor (0-800 nM) and an excess of substrate (10 μM). Each reaction was made in reaction buffer (50 mM Tris pH 7.5, 150 mM NaCl, 0,05% Triton X-100, 0.01% BSA) at 25° C. for 45 min and the rate of product formation was measured using a FLₓ800 fluorescence 96-well microplate reader (Biotek, USA). In this model, inhibition is considered to be irreversible over the course of reaction and the progress of enzyme activity is expressed by product formation (P), beginning at a rate (vz) and is inhibited over time (t) at a first-order rate (kobs), rate constant that is dependent only on inhibitor concentration.

[12] = target: T2, human kallikrein 2 (hK2); assay: as above
Protocol: as §2

[13] = target: T3, human chymotrypsin (Chtr); assay: as above
Protocol: as §2

[14] = target: T4, human plasma kallikrein (PK); assay: as above
Protocol: as §2

[15] = target: T1, human neutrophil elastase (HNE); assay: cell-based or functional assay; remark: listed apart in the source
[16] = target: T3, human chymotrypsin (Chtr); assay: cell-based or functional assay; remark: listed apart in the source
[17] = target: thrombin; assay: cell-based or functional assay
[18] = target: T6, human kallikrein 14 (hK14) (human, UniProt Q9P0G3 25-251, limits assumed); assay: cell-based or functional assay
T6 sequence (looked up): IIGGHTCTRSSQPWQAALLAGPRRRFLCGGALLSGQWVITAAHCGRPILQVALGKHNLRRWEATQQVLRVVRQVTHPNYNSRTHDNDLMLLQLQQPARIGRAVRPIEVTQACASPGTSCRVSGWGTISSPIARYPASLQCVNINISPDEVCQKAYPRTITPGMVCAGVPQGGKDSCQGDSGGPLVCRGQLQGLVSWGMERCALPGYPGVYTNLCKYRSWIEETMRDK

[19] = target: T4, human plasma kallikrein (PK); assay: cell-based or functional assay; remark: listed apart in the source
[20] = target: T5, urokinase plasminogen activator (uPA); assay: cell-based or functional assay; remark: listed apart in the source
[21] = target: T6, human kallikrein 14 (hK14); assay: progress curve
[22] = target: T6, human kallikrein 14 (hK14); assay: residual hK14 activity after 4 h at 37 C against [I0]/[E0]
Protocol: (§3) SI values of rAAT, rACT, and their variants were determined with hK14 incubating the protease with varying concentrations of inhibitor. After an incubation of 4 hours at 37° C. in reaction buffer (50 mM Tris, pH 7.5, 150 mM NaCl, 0.05% Triton X-100, 0.01% BSA), the residual activity was detected by the addition of fluorescent substrate (Boc-Val-Pro-Arg-AMC). Fluorescence was measured with excitation at 340 nm (±15) and emission at 485 nm (±10) in black 96 well plates using a microplate fluorescence reader FLₓ800 (Bio-Tek Instruments, Inc.). The SI value corresponds to the abscissa intercept of the linear regression analysis of fractional velocity (velocity of inhibited enzyme reaction (vi)/velocity of uninhibited enzyme reaction (v₀)) vs. the molar ratio of the inhibitor to enzyme ([I₀]/[E₀]).

[23] = target: human kallikrein 6 (hK6) (human, UniProt Q92876 22-244); assay: cell-based or functional assay
[24] = target: T7, human kallikrein 8 (hK8) (human, UniProt O60259 33-260); assay: cell-based or functional assay
T7 sequence (looked up): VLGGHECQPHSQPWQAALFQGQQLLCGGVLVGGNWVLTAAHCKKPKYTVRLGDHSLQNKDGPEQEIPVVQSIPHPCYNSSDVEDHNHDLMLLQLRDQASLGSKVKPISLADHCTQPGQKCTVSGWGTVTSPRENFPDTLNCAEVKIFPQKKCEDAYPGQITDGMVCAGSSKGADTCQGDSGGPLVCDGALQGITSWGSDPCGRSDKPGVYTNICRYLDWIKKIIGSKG

[25] = target: T1, human neutrophil elastase (HNE); assay: cell-based or functional assay; remark: listed apart in the source
[26] = target: T2, human kallikrein 2 (hK2); assay: cell-based or functional assay; remark: listed apart in the source
[27] = target: prostate specific antigen (PSA, hK3) (human, UniProt P07288 25-261); assay: cell-based or functional assay
[28] = target: T8, human kallikrein 13 (hK13) (human, UniProt Q9UKR3 26-277, limits assumed); assay: cell-based or functional assay
T8 sequence (looked up): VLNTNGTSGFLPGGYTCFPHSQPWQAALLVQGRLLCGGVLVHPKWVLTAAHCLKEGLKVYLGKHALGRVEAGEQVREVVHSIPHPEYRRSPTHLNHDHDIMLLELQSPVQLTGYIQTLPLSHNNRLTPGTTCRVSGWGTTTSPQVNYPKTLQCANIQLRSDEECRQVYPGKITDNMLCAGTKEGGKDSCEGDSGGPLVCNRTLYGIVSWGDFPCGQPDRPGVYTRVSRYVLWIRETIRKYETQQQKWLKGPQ

[29] = target: T3, human chymotrypsin (Chtr); assay: cell-based or functional assay; remark: listed apart in the source
[30] = target: thrombin; assay: cell-based or functional assay; remark: listed apart in the source
[31] = target: T6, human kallikrein 14 (hK14); assay: cell-based or functional assay; remark: listed apart in the source
[32] = target: T4, human plasma kallikrein (PK); assay: cell-based or functional assay; remark: listed apart in the source
[33] = target: T9, human kallikrein 5 (hK5) (human, UniProt Q9Y337 67-293, limits assumed); assay: cell-based or functional assay
T9 sequence (looked up): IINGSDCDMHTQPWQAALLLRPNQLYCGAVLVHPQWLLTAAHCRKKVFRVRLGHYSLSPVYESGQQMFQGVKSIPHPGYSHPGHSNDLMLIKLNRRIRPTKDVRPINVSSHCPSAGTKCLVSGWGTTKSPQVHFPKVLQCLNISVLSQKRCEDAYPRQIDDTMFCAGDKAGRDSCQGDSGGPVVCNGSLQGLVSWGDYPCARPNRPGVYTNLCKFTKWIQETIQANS

[34] = target: human kallikrein 4 (hK4) (human, UniProt Q9Y5K2 31-254, limits assumed); assay: cell-based or functional assay
Chain of human kallikrein 4 (hK4) (Q9Y5K2 31-254 limits assumed): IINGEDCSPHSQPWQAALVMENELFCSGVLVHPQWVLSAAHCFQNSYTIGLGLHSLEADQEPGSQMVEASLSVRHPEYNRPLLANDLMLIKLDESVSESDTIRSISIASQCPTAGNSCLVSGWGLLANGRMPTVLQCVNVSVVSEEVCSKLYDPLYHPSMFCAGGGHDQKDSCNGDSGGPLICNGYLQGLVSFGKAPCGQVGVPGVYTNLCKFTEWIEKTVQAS

[35] = target: T6, human kallikrein 14 (hK14); assay: progress curve, pseudo-first order, 37 C
Protocol: The association rate constants for interactions of hK14, with different inhibitors were determined under pseudo-first order conditions using the progress curve method (Morrison and Walsh, 1988). Under these conditions, a fixed amount of enzyme (2 nM) was mixed with different concentrations of inhibitor (0-80 nM) and an excess of substrate (20 μM). Reactions were performed in reaction buffer (50 mM Tris pH 7.5, 150 mM NaCl, 0.05% Triton X-100, 0.01% BSA) at 37° C. for 45 min and the rate of product formation was measured using a FLₓ800 fluorescence 96-well microplate reader (Biotek, USA) Inhibition is considered to be irreversible over the course of reaction and the progression of enzyme activity is expressed as product formation (P), beginning at a rate (vz) and is inhibited over time (t) at a first-order rate (kobs), where the rate constant is only dependent on the inhibitor concentration.
Kinetic analysis of the inhibition of human hK14 by recombinant serpins were performed under pseudo-first-order conditions using an excess of inhibitor at various molar ratios of hK14. The time-dependent inactivation of the enzyme through reaction with serpin was monitored continuously, following the decrease in the rate of substrate turnover. Progress curves for reactions with different serpin concentrations were fitted to equation 1 to calculate values describing the rate constant (kobs). The association rate constants (kₐ) were determined from the slope of kobs values versus the concentration of the hK14 inhibitors.

[36] = target: T6, human kallikrein 14 (hK14); assay: residual hK14 activity against [I0]/[E0]
Protocol: as §3

- SI (stoichiometry of inhibition) [1]: 334
- SI (stoichiometry of inhibition) [2]: 105
- SI (stoichiometry of inhibition) [3]: 134
- SI (stoichiometry of inhibition) [4]: 150
- INHIBITION % [5]: 30%
- INHIBITION % [6]: 95%
- INHIBITION % [7]: 0%
- INHIBITION % [8]: 66%
- INHIBITION % [9]: 54%
- INHIBITION % [10]: 0%
- kon [11]: 158 M⁻¹ s⁻¹
- kon [12]: 1780 M⁻¹ s⁻¹
- kon [13]: 905 M⁻¹ s⁻¹
- kon [14]: 424 M⁻¹ s⁻¹
B1: rACT8.20 (other)
chain: MRGSHHHHHHSRHPNSPLDEENLTQENQDRGTHVDLGLASANVDFAFSLYKQLVLKAPDKNVIFSPLSISTALAFLSLGAHNTTLTEILKGLKFNLTETSEAEIHQSFQHLLRTLNQSSDELQLSMGNAMFVKEQLSLLDRFTEDAKRLYGSEAFATDFQDSAAAKKLINDYVKNGTRGKITDLIKDLDSQTMMVLVNYIFFKAKWEMPFDPQDTHQSRFYLSKKKWVMVPMMSLHHLTIPYFRDEELSCTVVELKYTGNASALFILPDQDKMEEVEAMLLPETLKRWRDSLEFREIGELYLPKFSISRDYNLNDILLQLGIEEAFTSKADLSGITGARNLAVSQVVHKAVLDVFEEGTEASAATAVKITLRSRAVETRTIVRFNRPFLMIIVPTDTQNIFFMSKVTNPKQA
notes: recombinant alpha-1-antichymotrypsin (serpin) variant, RSL substrate peptide LRSRA; N-terminal His tag, E. coli TG1; also called MD820; MD 820

- % Inhibition [15]: 0%
- % Inhibition [16]: 14%
- % Inhibition [17]: 0%
- % Inhibition [18]: 100%
- % Inhibition [19]: 36%
- % Inhibition [20]: 0%
- kon [21]: 575000 M⁻¹ s⁻¹
- SI (stoichiometry of inhibition) [22]: 1.2
- Percentage inhibition [23]: 72%
- Percentage inhibition [24]: 34%
- Percentage inhibition [25]: 0%
- Percentage inhibition [26]: 100%
- Percentage inhibition [27]: 0%
- Percentage inhibition [28]: 0%
- Percentage inhibition [29]: 14%
- Percentage inhibition [30]: 0%
- Percentage inhibition [31]: 100%
- Percentage inhibition [32]: 36%
- Percentage inhibition [33]: 100%
- Percentage inhibition [34]: 100%
- kon [35]: 575000 M⁻¹ s⁻¹
- SI (stoichiometry of inhibition) [36]: 1.2
B2: ACTE8 (other)
chain: B1 chain with T370L, L371Q, S373A, R374I, A375L
notes: also called rACTE8
